Data from publication PMC2422856.

Molecular target: CapAB(K55M), inactive P-loop mutant of the CapAB chimeric protein, unphosphorylated (Staphylococcus aureus)
Test: crystal structure; CapAB(K55M) at 8.5 mg/ml with 10 mM MgCl2, 20% (v/v) PEG 1000, 200 mM glycine, 0.1 M Na-Hepes pH 7.5, 18 °C; 2.6 Å

Substance: CapAB(K55M), inactive P-loop mutant of the CapAB chimeric protein, unphosphorylated
- stoichiometry N: 8
